US20220195407, “OPTIMIZATION OF ENGINEERED MEGANUCLEASES FOR RECOGNITION SEQUENCES” (Precision BioSciences, Inc., published 2022)
Residue numbers refer to the chain shown, from its start.

Tests used:
Assay in all cases: cell_activity; CHO iGFFP reporter
LOX 3-4m.1125 = biological target: T1, LOX 3-4m.1125 (artificial (I-CreI derived))
T1 chain: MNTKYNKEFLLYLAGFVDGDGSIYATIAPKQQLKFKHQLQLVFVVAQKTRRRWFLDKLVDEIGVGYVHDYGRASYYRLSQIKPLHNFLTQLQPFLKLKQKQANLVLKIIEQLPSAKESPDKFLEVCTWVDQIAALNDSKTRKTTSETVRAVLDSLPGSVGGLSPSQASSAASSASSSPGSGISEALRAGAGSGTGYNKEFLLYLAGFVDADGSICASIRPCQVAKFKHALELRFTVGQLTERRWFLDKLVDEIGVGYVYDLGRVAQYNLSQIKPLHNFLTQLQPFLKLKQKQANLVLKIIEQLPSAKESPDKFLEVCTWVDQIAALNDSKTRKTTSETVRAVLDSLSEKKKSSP
Excerpt: (§1) A CHO cell reporter system (see WO/2012/167192, FIG. 3) was used to determine whether the engineered meganucleases generated in these studies could recognize and cleave the modified LOX 3-4 recognition sequences in Table 87. To perform the assay, a pair of CHO cell reporter lines were produced, which carried a non-functional Green Fluorescent Protein (GFP) gene expression cassette integrated into the genome of the cell. The GFP gene in each cell line was interrupted by a pair of recognition sequences such that intracellular cleavage of either recognition sequence by a meganuclease would stimulate a homologous recombination event resulting in a functional GFP gene. In both cell lines, one of the recognition sequences was derived from the LOX 3-4 recognition sequence (i.e., those sequences disclosed in Table 87), and the second recognition sequence was specifically recognized by a control meganuclease called “CHO 23/24.” CHO reporter cells comprising a recognition sequence derived from the LOX 3-4 recognition sequence and the CHO 23/24 recognition sequence are referred to herein as “test cells.”
(§2) Novel engineered meganucleases derived from the LOX 3-4x.109 meganuclease were prepared by making amino acid substitutions at one or more positions in the first subunit and one or more positions in the second subunit. These engineered meganucleases were then evaluated for cleavage of the LOX 3-4 recognition sequence modified to have an ACGC center sequence (SEQ ID NO: 90) in the CHO reporter assay according to Example 1.

LOX 3-4m.1069 = biological target: T2, LOX 3-4m.1069 (artificial (I-CreI derived))
T2 chain: T1 chain with G19A, G71R, A210G, L239K, Q271E, K330R
Excerpt: as §1, §2

LOX 3-4m.1052 = biological target: T3, LOX 3-4m.1052 (artificial (I-CreI derived))
T3 chain: T1 chain with G19A, A210G, L239K, E241S, G262K, V264I, K330N
Excerpt: as §1, §2

LOX 3-4m.1123 = biological target: T4, LOX 3-4m.1123 (artificial (I-CreI derived))
T4 chain: T1 chain with G19A, K48S, Q80E, A210G, L239H, E241K, E252Q, V264I, A265T, K330H
Excerpt: as §1, §2

LOX 3-4m.1946 = biological target: T5, LOX 3-4m.1946 (artificial (I-CreI derived))
T5 chain: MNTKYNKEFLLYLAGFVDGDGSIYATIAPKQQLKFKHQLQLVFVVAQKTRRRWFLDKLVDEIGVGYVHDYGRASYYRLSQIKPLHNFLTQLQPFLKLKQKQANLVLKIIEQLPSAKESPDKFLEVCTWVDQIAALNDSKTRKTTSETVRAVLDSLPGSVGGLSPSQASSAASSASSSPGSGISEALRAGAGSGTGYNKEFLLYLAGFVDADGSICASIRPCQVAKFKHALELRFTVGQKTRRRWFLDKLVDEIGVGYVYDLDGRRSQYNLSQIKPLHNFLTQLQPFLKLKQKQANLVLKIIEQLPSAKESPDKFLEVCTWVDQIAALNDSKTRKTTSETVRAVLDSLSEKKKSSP
Excerpt: as §1
(§3) Novel engineered meganucleases derived from the LOX 3-4x.109 meganuclease were prepared by making amino acid substitutions at one or more positions in the first subunit and one or more positions in the second subunit. In addition, an R residue was inserted following position 264, which corresponds to position 73 of wild-type I-CreI.

LOX 3-4m.1947 = biological target: T6, LOX 3-4m.1947 (artificial (I-CreI derived))
T6 chain: T5 chain
Excerpt: as §1, §3

LOX 3-4m.1941 = biological target: T7, LOX 3-4m.1941 (artificial (I-CreI derived))
T7 chain: T5 chain
Excerpt: as §1, §3

LOX 3-4m.1876 = biological target: T8, LOX 3-4m.1876 (artificial (I-CreI derived))
T8 chain: T5 chain
Excerpt: as §1, §3

LOX 3-4m.1225 = biological target: T9, LOX 3-4m.1225 (artificial (I-CreI derived))
T9 chain: T1 chain with G19A, R50C, A210G, L239S, E241A, V264A
Excerpt: as §1
as §2, with “ACGT” for “ACGC”, “136)” for “90)”

LOX 3-4m.1206 = biological target: T10, LOX 3-4m.1206 (artificial (I-CreI derived))
T10 chain: T1 chain with R50C, L239S, R263K, V264C, A265T
Excerpt: as §1
as §2, with “ACGT” for “ACGC”, “136)” for “90)”

LOX 3-4m.1153 = biological target: T11, LOX 3-4m.1153 (artificial (I-CreI derived))
T11 chain: T1 chain with G19A, R50C, A210G, L239S, R263K, V264A
Excerpt: as §1
as §2, with “ACGT” for “ACGC”, “136)” for “90)”

LOX 3-4m.1158 = biological target: T12, LOX 3-4m.1158 (artificial (I-CreI derived))
T12 chain: T1 chain with G19A, Q80E, A210G, L239S, E241C, R263K, V264A, A265S
Excerpt: as §1
as §2, with “ACGT” for “ACGC”, “136)” for “90)”

B1: LOX 3-4 ACGC (dsDNA)
DNA 1: GTATAGCATACGCTATACGAAG
DNA 2: CTTCGTATAGCGTATGCTATAC
activity (LOX 3-4m.1125): 10.4 % GFP
activity (LOX 3-4m.1069): 10.3 % GFP
activity (LOX 3-4m.1052): 9.34 % GFP
activity (LOX 3-4m.1123): 9.56 % GFP

B2: LOX 3-4 ACGG (dsDNA)
DNA 1: GTATAGCATACGGTATACGAAG
DNA 2: CTTCGTATACCGTATGCTATAC
activity (LOX 3-4m.1946): 10.8 % GFP
activity (LOX 3-4m.1947): 10.5 % GFP
activity (LOX 3-4m.1941): 10.1 % GFP
activity (LOX 3-4m.1876): 9.6 % GFP

B3: LOX 3-4 ACGT (dsDNA)
DNA 1: GTATAGCATACGTTATACGAAG
DNA 2: CTTCGTATAACGTATGCTATAC
activity (LOX 3-4m.1225): 10.6 % GFP
activity (LOX 3-4m.1206): 9.84 % GFP
activity (LOX 3-4m.1153): 10.3 % GFP
activity (LOX 3-4m.1158): 9.19 % GFP
